# Results taken from US20100292181.
# T1: Synthetic peptide S3 conjugated to a penetratin peptide
# T1 chain: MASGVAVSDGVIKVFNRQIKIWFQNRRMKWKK
# Legend:
# [1] = biological target: T1, Synthetic peptide S3 conjugated to a …
# [2] = biological target: GST-tagged recombinant human cofilin
# Chain of GST-tagged recombinant human cofilin (chain, as listed by the source): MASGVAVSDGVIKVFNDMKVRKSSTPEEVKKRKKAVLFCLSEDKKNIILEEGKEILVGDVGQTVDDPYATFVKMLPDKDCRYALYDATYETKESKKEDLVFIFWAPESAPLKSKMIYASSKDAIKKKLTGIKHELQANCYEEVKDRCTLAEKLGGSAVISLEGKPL
protein,measurement,setting,value
purified LIMK1 (protein) GSSARQKPVLRSCSIDRSPGAGSLGSPASQRKDLGRSESLRVVCRPHRIFRPSDLIHGEVLGKGCFGQAIKVTHRETGEVMVMKELIRFDEETQRTFLKEVKVMRCLEHPNVLKFIGVLYKDKRLNFITEYIKGGTLRGIIKSMDSQYPWSQRVSFAKDIASGMAYLHSMNIIHRDLNSHNCLVRENKNVVVADFGLARLMVDEKTQPEGLRSLKKPDRKKRYTVVGNPYWMAPEMINGRSYDEKVDVFSFGIVLCEIIGRVNADPDYLPRTMDFGLNVRGFLDRYCPPNCPPSFFPITVRCCDLDPEKRPSFVKLEHWLETLRMHLAGHLPLGPQLEQLDRGFWETYRRGESG,cofilin phosphorylation in the in vitro LIMK1 kinase assay (western blot for phospho-cofilin ser3),[1],S3 inhibited cofilin phosphorylation by LIMK1
same,cofilin phosphorylation in the in vitro LIMK1 kinase assay (western blot for phospho-cofilin ser3),[2],the phosphorylation of cofilin by LIMK1
